Patent publication US20180185504A1 (Regeneron, published 2018)
Changes are numbered by the printed parent chain. Names may count otherwise.

T1: human PRLR on cells (endogenous on T47D, T47D#11, MCF7); introduced in HEK293/hPRLR/STAT5-Luc, 293/hPRLR, … (human, UniProt P16471 25-622)
T1 construct: no tag is stated for these lines; also called prolactin receptor
T1 sequence: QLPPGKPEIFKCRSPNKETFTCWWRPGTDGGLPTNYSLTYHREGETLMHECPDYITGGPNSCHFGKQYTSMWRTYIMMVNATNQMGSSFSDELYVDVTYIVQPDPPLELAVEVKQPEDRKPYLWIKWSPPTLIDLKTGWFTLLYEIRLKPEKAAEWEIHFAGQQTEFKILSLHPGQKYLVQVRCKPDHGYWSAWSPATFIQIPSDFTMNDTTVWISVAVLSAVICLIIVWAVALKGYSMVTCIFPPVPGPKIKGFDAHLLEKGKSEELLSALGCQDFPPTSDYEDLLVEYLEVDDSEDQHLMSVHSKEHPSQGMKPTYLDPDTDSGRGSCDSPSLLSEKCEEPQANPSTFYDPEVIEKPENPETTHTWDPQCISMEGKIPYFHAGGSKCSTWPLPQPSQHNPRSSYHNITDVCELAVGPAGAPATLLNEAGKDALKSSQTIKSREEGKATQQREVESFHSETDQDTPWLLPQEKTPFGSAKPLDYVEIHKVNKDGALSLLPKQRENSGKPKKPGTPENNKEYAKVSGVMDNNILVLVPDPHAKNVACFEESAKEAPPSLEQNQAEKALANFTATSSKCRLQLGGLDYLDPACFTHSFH

T2: monkey macaca fascicularis PRLR construct with an HA tag on HEK293/mfPRLR cells (macaca fascicularis, UniProt A0A2K5WXK1 25-619)
T2 construct: stably transfected into HEK293
T2 sequence: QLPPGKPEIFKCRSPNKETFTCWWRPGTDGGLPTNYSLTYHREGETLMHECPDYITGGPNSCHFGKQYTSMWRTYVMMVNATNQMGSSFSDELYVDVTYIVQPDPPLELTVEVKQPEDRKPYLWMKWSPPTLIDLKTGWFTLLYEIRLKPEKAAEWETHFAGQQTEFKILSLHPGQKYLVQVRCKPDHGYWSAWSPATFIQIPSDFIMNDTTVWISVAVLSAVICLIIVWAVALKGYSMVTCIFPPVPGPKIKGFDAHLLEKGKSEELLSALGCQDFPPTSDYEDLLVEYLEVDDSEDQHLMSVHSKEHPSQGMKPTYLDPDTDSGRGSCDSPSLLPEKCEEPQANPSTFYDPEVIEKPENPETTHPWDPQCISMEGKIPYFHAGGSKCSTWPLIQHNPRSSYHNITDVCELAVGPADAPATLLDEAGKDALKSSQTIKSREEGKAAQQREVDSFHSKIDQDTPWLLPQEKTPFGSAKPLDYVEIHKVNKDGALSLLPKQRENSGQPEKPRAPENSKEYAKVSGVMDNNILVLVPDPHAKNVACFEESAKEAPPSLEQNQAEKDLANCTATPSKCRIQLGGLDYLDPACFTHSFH

T3: human PRLR construct with an HA tag on HEK293/hPRLR cells (human, UniProt P16471 25-622)
T3 sequence: T1 sequence

T4: mfPRLR.mmh (soluble monomeric macaca fascicularis PRLR) (macaca fascicularis)
T4 construct: soluble monomeric PRLR protein; also called macaca fascicularis (mf) PRLR.mmh; monkey PRLR
T4 chain: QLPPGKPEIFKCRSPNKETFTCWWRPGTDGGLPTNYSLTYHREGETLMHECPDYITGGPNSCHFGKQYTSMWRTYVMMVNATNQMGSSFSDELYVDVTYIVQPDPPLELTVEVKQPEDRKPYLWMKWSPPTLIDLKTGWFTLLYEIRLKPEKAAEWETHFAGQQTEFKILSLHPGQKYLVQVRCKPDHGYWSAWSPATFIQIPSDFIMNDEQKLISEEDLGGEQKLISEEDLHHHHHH

T5: hPRLR.mmh (soluble monomeric human PRLR) (human)
T5 construct: soluble monomeric PRLR protein
T5 chain: T4 chain with V76I, T110A, M125I, T158I, I207T

T6: hPRLR.mFc (soluble dimeric human PRLR) (human)
T6 construct: dimeric PRLR construct
T6 chain: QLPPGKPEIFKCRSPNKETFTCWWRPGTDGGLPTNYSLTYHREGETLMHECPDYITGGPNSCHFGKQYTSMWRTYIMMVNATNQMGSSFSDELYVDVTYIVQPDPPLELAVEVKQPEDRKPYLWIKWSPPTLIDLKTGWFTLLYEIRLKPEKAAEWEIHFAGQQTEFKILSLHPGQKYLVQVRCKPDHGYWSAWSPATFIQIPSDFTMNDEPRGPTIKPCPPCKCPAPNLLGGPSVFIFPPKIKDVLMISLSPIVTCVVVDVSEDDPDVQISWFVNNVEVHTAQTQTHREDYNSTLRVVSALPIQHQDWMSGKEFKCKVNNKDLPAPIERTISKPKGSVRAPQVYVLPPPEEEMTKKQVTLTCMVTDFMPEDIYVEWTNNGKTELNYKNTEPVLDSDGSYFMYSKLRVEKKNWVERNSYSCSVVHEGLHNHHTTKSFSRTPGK

B1: H1H6959N2 (antibody, human IgG1, V domains shown)
VH: EVQLVESGGGLVQPGRSLRLSCAASGFTFDDYAMHWVRQAPGKGLEWVSGISWHSGIIGYADSVKGRFTISRDNAKNSLYLQMNSLRTEDAALYYCAKIGSYFYFDSWGQGTLVTVSS
VL: EIVLTQSPGTLSLSPGERATLSCRASQSVSSNYLAWYQQKPGQAPRLLIYGASSRATGIPDRFSGSGSGTDFTLTISRLEPEDFAVYYCQQFGSSGYTFGQGTNLEIK
notes: also called H2M6959N2
B2: H1H6790P (antibody, human IgG1, V domains shown)
VH: EVQLVESGGGLVQPGGSLRLSCAASGFTFSSYAMTWVRQAPGKGLEWVSAITGSVGNTYYADSVKGRFTISRDNSKNTLYLQMNSLGAEDTAEYYCAKGAGMTTNWYLDLWGRGTLVTVSS
VL: DIVMTQSPDSLAVSLGARATINCKSSQSVLYSSNNQNYLTWYQQKPGQPPKLLIKWASTRESGVPDRFSGSGSGTDFTLTISSLQAEDVAVYYCQQYASSPYTFGQGTKLEIK
notes: human IgG1 Fc (H1H)
B3: H1H6804P (antibody, human IgG1, V domains shown)
VH: QVTLKESGPVLVKPTQTLSLTCTVSGFSLSDAGMGVSWIRQPPGKALEWLAHIFSNDGKSYSTSLKSRLTISKDTSKRQVVLTMTNMDPVDTATYYCARIRTGTYSLYLDYWGQGTLVTVSS
VL: DIQMTQSPSSLSASVGDRVTITCRASQSINSYLNWYQQKPGKAPKLLLYFASSLQSGVPSRFSGSGSGTDFTLTISSLQPEDFASYYCQESYSTPWTFGQGTKVEIK
notes: human IgG1 Fc (H1H)
B4: H1H6797P (antibody, human IgG1, V domains shown)
VH: EVQLVESGGGLVQPGGSLRLSCIVSGFTFSGSWMSWVRQLPGKGLEWVANIKEDGSDSYYVDSVEGRFTISRDNAKSSLYLQMNSLRVDDTAVYFCARARTVPLHYWGQGTLVTVSS
VL: DIQMTQSPSTLSASVGDRVTITCRASQSINIWLAWYQQKPGKAPKLLIYRASYLESGVPSSFAGGGSGTEFTLTISSLQPDDFGTYYCQHYNSYPFTFGQGTKLEIK
notes: human IgG1 Fc (H1H)
B5: H1H6960N (antibody, human IgG1, V domains shown)
VH: EVQLVESGGGLVKPGGSLRLSCAASGITFSSYSMNWVRQAPGKGLEWVSSISTRSSLIHYADSVKGRFTISRDNAKNSLYLQMNSLRDEDTAVYYCARWDAAAAFDYWGQGTLVIVSS
VL: DIQLTQSPSFLSASVGDRVTITCWASQGISSYLAWYQQKPGKAPKLLIYVASTLQSGVPSRFSGSGSGTEFTLTISSLQPEDFATYFCQQLNSYPLTFGGGTKVEIK
notes: also called H2M6960N
B6: H1H6966N (antibody, human IgG1, V domains shown)
VH: QVQLVQSGAEVQKPGASVKVSCKVSGYTLTALSIHWVRQAPGKGLEWMGNFDPGDGETIHAQKFQGRVTMTGDTSTDTAYMELSSLRSEDTAVYYCVGVTFDYWGQGTLVTVSS
VL: EIVMTQSPATLSVSPGERATLSCRASQSVASNLAWYQQKPGQAPRLLLYGASTRATGIPARFSGSGSGTEFTLTISSLQSEDFALYYCQHYNNWPLTFGGGTKVEIK
notes: also called H2M6966N

biological target: T1, human PRLR on cells (endogenous on …); experiment: FACS on T47D cells

FACS Cell Binding (Fold Above Background) | Binder
9 fold | B1
34 fold | B2
34 fold | B3
38 fold | B4
33 fold | B5
31 fold | B6

biological target: T1, human PRLR on cells (endogenous on …); experiment: cell-based or functional assay

Percent Blocking at 100 nM Antibody (STAT5-Luc reporter) | IC50 of Blocking 5 nM PRL [M] (STAT5-Luc reporter, HEK293/hPRLR/STAT5-Luc cells) | Binder
52% | – | B1
100% | 2.06e-10 M | B2
100% | 7.89e-09 M | B3
0% | – | B4
100% | 1.58e-09 M | B5
54% | – | B6

biological target: T2, monkey macaca fascicularis PRLR …; experiment: FACS on HEK293/mfPRLR cells

FACS Cell Binding (Fold Above Background) | Binder
11 fold | B1
24 fold | B2
29 fold | B3
25 fold | B4
23 fold | B5
18 fold | B6

biological target: T3, human PRLR construct with an HA tag on …; experiment: FACS on HEK293/hPRLR cells

FACS Cell Binding (Fold Above Background) | Binder
6 fold | B1
37 fold | B2
1 fold | B3
1 fold | B4
29 fold | B5
29 fold | B6

Biological target: T4, mfPRLR.mmh (soluble monomeric macaca …)
Experiment: SPR (Biacore), antibody capture, 37 C
Experimental: (§1) Measurements were conducted on a T200 Biacore instrument. Kinetic association (kₐ) and dissociation (kd) rate constants were determined by processing and fitting the data to a 1:1 binding model using Scrubber 2.0 curve fitting software.

Kd | T 1/2 | koff | kon | Binder
370 nM | 0.7 min | 0.0165 s⁻¹ | 44600 M⁻¹ s⁻¹ | B1
5.22 nM | 4 min | 0.00321 s⁻¹ | 615000 M⁻¹ s⁻¹ | B2
9.35 nM | 3 min | 0.00426 s⁻¹ | 455000 M⁻¹ s⁻¹ | B3
9.9 nM | 1 min | 0.00906 s⁻¹ | 914000 M⁻¹ s⁻¹ | B4
14.9 nM | 9 min | 0.00128 s⁻¹ | 86400 M⁻¹ s⁻¹ | B5
0.982 nM | 9.6 min | 0.0012 s⁻¹ | 1.22e+06 M⁻¹ s⁻¹ | B6

Biological target: T5, hPRLR.mmh (soluble monomeric human PRLR)
Experiment: SPR (Biacore), antibody capture, 37 C
Experimental: as §1

Kd | T 1/2 | koff | kon | Binder
681 nM | 0.4 min | 0.0277 s⁻¹ | 40600 M⁻¹ s⁻¹ | B1
3.5 nM | 4 min | 0.00329 s⁻¹ | 940000 M⁻¹ s⁻¹ | B2
6.34 nM | 3 min | 0.00385 s⁻¹ | 607000 M⁻¹ s⁻¹ | B3
6.37 nM | 1 min | 0.00822 s⁻¹ | 1.29e+06 M⁻¹ s⁻¹ | B4
16.2 nM | 5.8 min | 0.00198 s⁻¹ | 122000 M⁻¹ s⁻¹ | B5
0.607 nM | 12 min | 0.00096 s⁻¹ | 1.58e+06 M⁻¹ s⁻¹ | B6

Biological target: T6, hPRLR.mFc (soluble dimeric human PRLR)
Experiment: SPR (Biacore), antibody capture, 37 C
Experimental: as §1

Kd | T 1/2 | koff | kon | Binder
4.51 nM | 5 min | 0.0023 s⁻¹ | 509000 M⁻¹ s⁻¹ | B1
0.306 nM | 58 min | 0.000198 s⁻¹ | 646000 M⁻¹ s⁻¹ | B2
0.369 nM | 56 min | 0.000205 s⁻¹ | 554000 M⁻¹ s⁻¹ | B3
0.0691 nM | 93 min | 0.000125 s⁻¹ | 1.8e+06 M⁻¹ s⁻¹ | B4
0.5 nM | 78.7 min | 0.000147 s⁻¹ | 294000 M⁻¹ s⁻¹ | B5
0.0672 nM | 91.3 min | 0.000127 s⁻¹ | 1.88e+06 M⁻¹ s⁻¹ | B6
